Data published in article PMC12520364, “UBXN7 facilitates SARS-CoV-2 replication via inhibiting the K48-linked ubiquitination of viral N protein” (PLOS Pathogens, 2025).

B1: purified HA-UBXN7 (natural protein, UniProt O94888 1-489, looked up)
chain: MAAHGGSAASSALKGLIQQFTTITGASESVGKHMLEACNNNLEMAVTMFLDGGGIAEEPSTSSASVSTVRPHTEEEVRAPIPQKQEILVEPEPLFGAPKRRRPARSIFDGFRDFQTETIRQEQELRNGGAIDKKLTTLADLFRPPIDLMHKGSFETAKECGQMQNKWLMINIQNVQDFACQCLNRDVWSNEAVKNIIREHFIFWQVYHDSEEGQRYIQFYKLGDFPYVSILDPRTGQKLVEWHQLDVSSFLDQVTGFLGEHGQLDGLSSSPPKKCARSESLIDASEDSQLEAAIRASLQETHFDSTQTKQDSRSDEESESELFSGSEEFISVCGSDEEEEVENLAKSRKSPHKDLGHRKEENRRPLTEPPVRTDPGTATNHQGLPAVDSEILEMPPEKADGVVEGIDVNGPKAQLMLRYPDGKREQITLPEQAKLLALVKHVQSKGYPNERFELLTNFPRRKLSHLDYDITLQEAGLCPQETVFVQERN
notes: May be the same construct as m1 (pCAGGS-HA); source: purified
B2: Purified recombinant UBXN7-his protein (natural protein, UniProt O94888 1-489, looked up)
chain: B1 chain
notes: The host of UBXN7-his is therefore told in two ways; also called His-tagged UBXN7; source: HEK293F, transfected, purified (Ni-NTA, Superdex200)

Tests used:
[1] = biological target: T1, Purified recombinant His-N protein from E. coli (SARS-CoV-2, UniProt P0DTC9 1-419); assay: pull-down; conditions: both partners purified
T1 construct: SARS-CoV-2 N protein, full-length N gene of NC_045512.2 in pET-28a(+); also called prokaryotic recombinant SARS-CoV-2 N protein; not shown: 6xHis, N-terminal, kept

[2] = biological target: T2, Fc-tagged SARS-CoV-2 N protein (SARS-CoV-2, UniProt P0DTC9 1-419); assay: pull-down; conditions: both partners purified
T2 construct: also called N-Fc; SARS-CoV-2 N-Fc

Row | Binder | binding result [1] | binding result [2]
1 | B1 | binds | –
2 | B2 | – | binds
